This experiment has as its target EYFP-RyR1 (full-length rabbit type 1 ryanodine receptor), expressed in RyR1/RyR3 double-null (R1R3) myotubes (rabbit) (UniProt P11716). Briefly: FRET or BRET.

Chain of EYFP-RyR1 (full-length rabbit type 1 ryanodine receptor), expressed in RyR1/RyR3 double-null (R1R3) myotubes, P11716 1-5037 (natural protein) (P11716 whole entry): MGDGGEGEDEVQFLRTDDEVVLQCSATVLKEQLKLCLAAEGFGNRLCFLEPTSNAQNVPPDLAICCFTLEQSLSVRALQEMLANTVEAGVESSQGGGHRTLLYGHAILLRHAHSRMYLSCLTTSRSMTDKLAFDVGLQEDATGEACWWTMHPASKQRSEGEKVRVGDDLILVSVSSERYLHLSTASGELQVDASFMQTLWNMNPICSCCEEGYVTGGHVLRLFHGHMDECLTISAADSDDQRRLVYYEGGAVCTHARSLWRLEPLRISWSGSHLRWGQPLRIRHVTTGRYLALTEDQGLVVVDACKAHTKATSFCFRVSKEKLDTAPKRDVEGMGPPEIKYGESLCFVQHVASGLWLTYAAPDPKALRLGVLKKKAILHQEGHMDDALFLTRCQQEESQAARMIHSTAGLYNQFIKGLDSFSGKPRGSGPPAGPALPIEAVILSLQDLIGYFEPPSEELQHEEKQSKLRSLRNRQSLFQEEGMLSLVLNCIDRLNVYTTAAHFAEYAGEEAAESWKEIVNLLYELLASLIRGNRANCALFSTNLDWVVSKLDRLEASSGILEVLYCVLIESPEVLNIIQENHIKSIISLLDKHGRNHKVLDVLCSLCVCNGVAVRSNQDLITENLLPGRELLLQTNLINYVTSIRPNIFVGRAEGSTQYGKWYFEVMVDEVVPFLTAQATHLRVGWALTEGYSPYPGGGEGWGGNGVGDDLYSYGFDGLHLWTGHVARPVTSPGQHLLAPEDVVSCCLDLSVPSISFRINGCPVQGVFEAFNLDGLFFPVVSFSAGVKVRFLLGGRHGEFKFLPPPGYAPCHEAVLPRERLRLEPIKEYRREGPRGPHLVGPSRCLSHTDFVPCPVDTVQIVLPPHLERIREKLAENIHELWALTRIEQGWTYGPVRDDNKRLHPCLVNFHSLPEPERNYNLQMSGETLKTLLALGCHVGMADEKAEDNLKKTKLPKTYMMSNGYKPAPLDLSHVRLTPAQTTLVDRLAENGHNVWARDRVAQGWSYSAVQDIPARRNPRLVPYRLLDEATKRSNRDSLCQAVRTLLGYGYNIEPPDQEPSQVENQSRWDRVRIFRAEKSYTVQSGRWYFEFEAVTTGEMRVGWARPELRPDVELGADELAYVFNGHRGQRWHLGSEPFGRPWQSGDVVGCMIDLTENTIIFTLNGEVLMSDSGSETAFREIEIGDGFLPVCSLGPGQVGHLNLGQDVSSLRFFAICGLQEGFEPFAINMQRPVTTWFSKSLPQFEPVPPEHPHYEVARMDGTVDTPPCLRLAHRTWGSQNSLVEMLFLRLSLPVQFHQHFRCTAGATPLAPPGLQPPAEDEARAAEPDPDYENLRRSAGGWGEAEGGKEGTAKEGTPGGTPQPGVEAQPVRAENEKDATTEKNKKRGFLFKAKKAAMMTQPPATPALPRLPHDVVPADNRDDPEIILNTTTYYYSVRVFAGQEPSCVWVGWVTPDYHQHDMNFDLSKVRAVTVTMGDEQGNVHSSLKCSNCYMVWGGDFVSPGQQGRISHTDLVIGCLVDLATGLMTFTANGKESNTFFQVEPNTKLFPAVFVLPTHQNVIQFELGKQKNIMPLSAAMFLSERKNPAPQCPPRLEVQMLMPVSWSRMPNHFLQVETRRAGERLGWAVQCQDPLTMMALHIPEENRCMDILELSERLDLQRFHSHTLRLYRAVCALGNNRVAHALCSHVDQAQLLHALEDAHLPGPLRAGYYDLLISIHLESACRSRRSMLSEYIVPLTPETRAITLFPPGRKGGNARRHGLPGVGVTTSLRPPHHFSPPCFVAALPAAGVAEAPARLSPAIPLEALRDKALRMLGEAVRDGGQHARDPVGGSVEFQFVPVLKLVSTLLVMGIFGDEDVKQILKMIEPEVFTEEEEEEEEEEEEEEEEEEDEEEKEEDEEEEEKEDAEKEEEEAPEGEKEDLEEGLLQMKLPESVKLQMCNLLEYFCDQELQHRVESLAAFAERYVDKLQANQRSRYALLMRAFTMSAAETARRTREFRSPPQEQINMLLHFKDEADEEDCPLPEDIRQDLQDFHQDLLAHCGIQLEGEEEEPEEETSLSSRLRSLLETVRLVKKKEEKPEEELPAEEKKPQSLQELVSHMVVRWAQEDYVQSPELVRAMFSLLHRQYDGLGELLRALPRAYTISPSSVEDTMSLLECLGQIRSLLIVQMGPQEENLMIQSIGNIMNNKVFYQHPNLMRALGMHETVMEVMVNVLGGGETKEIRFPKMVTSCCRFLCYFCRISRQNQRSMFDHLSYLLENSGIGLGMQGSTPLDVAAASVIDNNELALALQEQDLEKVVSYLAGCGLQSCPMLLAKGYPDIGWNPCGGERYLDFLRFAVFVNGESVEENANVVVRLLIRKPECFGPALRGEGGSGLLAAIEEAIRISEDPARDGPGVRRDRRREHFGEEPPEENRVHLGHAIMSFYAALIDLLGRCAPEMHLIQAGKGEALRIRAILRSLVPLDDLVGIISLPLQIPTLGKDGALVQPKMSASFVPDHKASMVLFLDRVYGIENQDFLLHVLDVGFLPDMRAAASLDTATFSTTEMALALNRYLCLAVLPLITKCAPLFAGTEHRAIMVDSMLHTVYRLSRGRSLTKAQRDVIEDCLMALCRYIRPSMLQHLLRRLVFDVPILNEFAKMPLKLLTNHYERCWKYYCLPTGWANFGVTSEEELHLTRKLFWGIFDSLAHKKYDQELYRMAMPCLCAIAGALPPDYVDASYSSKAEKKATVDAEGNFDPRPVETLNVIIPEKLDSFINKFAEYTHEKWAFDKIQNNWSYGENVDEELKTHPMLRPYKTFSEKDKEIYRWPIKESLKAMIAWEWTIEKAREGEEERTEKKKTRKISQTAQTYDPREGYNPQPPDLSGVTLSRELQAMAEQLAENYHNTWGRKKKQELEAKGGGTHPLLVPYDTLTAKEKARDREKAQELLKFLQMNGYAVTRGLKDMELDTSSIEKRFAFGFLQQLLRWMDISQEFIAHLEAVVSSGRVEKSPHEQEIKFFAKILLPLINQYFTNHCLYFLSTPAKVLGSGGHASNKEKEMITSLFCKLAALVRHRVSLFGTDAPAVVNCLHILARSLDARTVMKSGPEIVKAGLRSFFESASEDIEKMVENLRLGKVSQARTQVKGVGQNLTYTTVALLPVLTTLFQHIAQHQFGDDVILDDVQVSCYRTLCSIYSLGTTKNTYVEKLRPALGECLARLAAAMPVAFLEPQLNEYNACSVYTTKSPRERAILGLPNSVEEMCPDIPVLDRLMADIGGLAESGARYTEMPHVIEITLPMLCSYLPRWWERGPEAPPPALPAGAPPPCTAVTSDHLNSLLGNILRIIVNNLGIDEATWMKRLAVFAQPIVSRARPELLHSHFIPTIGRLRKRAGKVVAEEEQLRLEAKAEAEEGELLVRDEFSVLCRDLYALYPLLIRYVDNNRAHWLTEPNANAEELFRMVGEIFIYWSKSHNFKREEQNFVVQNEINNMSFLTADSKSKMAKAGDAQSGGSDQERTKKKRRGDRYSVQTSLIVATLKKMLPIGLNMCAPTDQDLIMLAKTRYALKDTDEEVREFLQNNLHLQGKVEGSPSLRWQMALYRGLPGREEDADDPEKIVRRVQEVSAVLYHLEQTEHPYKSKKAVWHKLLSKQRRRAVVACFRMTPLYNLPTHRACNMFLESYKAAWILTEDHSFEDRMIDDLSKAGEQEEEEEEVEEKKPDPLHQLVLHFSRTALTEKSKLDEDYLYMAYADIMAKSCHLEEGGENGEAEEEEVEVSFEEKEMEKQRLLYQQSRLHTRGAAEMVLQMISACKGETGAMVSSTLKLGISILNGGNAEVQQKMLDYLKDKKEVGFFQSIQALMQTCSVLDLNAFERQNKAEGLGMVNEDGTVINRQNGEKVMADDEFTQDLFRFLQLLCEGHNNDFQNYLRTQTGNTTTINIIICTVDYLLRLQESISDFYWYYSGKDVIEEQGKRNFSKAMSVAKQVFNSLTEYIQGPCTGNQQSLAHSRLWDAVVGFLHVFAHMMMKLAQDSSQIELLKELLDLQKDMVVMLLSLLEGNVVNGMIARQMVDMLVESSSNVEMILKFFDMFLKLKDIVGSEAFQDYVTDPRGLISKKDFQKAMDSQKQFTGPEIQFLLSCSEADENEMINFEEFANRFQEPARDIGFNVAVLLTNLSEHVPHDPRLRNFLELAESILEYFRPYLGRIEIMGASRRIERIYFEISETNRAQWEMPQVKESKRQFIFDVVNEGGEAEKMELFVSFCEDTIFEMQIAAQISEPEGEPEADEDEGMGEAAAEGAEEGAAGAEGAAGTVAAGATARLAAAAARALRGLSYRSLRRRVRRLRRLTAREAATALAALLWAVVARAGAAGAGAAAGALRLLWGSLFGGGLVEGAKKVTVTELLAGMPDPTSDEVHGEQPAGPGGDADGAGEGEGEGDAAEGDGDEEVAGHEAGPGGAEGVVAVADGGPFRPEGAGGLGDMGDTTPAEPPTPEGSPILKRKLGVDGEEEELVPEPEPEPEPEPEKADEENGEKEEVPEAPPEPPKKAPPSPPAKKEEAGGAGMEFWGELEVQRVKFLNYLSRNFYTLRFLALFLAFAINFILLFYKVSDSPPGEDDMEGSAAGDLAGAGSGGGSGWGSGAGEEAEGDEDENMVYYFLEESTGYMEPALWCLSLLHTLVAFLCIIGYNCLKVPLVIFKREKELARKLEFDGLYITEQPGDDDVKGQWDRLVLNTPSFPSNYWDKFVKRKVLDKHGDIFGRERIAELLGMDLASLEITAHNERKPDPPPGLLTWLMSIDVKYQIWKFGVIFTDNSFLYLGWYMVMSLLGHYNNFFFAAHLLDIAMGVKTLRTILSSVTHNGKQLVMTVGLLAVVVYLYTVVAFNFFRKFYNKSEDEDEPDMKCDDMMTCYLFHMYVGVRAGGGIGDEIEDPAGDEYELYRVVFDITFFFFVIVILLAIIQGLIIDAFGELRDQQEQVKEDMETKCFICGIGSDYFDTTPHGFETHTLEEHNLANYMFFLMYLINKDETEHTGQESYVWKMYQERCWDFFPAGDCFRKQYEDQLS

In turn, “EYFP-RyR1 (full-length rabbit type 1 ryanodine receptor), expressed in RyR1/RyR3 double-null (R1R3) myotubes, P11716 1-5037 (natural protein)” yielded an FRET efficiency of 8.6%.

Values taken from article PMC5806685.
